According to patent publication US20240247080A1, “GLP1/GIP/NPY2 RECEPTOR TRIPLE AGONISTS” (Boehringer Ingelheim International GmbH, priority 2022, published 2024):
Starred links: 1 amine or outer side, 2 acyl side, 3 side chain; linkers in the order of their positions; H or OH if unused. Non-standard residues stand in square brackets, D forms with d. Groups on a side chain read outwards from the residue. No end group written: not given here. *: point of attachment. C18 diacid = O=C(O)CCCCCCCCCCCCCCCCC(=O)*; γGlu = O=C(O)[C@H](CCC(=O)[*:2])N[*:1]; εLys = N[C@@H](CCCCN[*:1])C(=O)[*:2]; AEEA = NCCOCCOCC(=O)O; Aib = CC(C)(N)C(=O)O; Ahx = NCCCCCC(=O)O

Assays:
Experiment in all cases: cell-based or functional assay
human GLP-1 receptor = human GLP-1 receptor (human, UniProt P43220 24-463)
human GIP receptor = target: T1, human GIP receptor (human, UniProt P48546 22-466)
T1 sequence (looked up): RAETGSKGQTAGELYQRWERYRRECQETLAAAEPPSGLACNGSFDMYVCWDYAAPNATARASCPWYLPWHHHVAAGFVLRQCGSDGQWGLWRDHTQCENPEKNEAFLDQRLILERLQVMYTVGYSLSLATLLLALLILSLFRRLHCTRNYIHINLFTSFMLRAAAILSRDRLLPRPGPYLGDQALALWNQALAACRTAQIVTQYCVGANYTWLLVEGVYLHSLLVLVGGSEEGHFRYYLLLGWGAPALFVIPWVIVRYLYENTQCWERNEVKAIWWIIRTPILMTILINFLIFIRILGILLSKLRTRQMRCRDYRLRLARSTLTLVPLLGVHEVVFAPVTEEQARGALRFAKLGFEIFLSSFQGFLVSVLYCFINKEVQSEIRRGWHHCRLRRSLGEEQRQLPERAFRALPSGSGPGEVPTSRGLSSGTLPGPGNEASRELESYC

[1] = target: T2, human neuropeptide Y2 receptor (human, UniProt P49146 1-381)
T2 sequence (looked up): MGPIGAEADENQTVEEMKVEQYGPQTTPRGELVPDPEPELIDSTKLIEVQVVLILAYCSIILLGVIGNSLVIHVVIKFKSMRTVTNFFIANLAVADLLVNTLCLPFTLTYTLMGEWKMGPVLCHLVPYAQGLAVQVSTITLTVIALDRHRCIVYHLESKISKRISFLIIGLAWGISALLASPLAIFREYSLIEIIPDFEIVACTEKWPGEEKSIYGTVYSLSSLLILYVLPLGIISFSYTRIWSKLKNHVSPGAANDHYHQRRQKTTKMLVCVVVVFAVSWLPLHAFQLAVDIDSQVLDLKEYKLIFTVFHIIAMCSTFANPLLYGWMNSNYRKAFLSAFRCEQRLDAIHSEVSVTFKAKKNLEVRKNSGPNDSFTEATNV

Row | Binder | EC50 CreLuc hGLP1R 0.5% hP (human GLP-1 receptor) [nM] | EC50 CreLuc hGLP1R 100% hP (human GLP-1 receptor) [nM] | EC50 CreLuc hGIPR 0.5% hP (human GIP receptor) [nM] | EC50 CreLuc hGIPR 100% hP (human GIP receptor) [nM] | EC50 CreLuc hNPY2R 0.5% hP [1] [nM] | EC50 CreLuc hNPY2R 100% hP [1] [nM]
1 | YXEGTFTSDYSIXLERQAQXAFVEWLIKGGPSSGASLRHYYNWLTRQRY (Aib at 2, 13, 20; K28 side chain: C20DA-gGlu-gGlu-gGlu-gGlu-gGlu-gGlu-eLys; C-terminal NH2) [Compound 131] | 0.11 | 2.84 | 0.35 | 2.94 | 18.2 | 71.5
2 | YXEGTFTSDYSIXLEKQAQXAFVEWLIKGGPSSGASIRHYYNWLTRQRY (Aib at 2, 13, 20; K28 side chain: C20DA-gGlu-gGlu-gGlu-gGlu-gGlu-gGlu-eLys; C-terminal NH2) [Compound 132] | 0.14 | 3.76 | 0.22 | 2.07 | 11.3 | 45.4
3 | YXEGTFTSDYSIXLEKQAQXAFVEWLIKGGPSSGASLRHYXNWLTRQRY (Aib at 2, 13, 20; Tle at 41; K28 side chain: C20DA-gGlu-gGlu-gGlu-gGlu-gGlu-gGlu-eLys; C-terminal NH2) [Compound 133] | 0.16 | 3.01 | 0.48 | 2.28 | 14.1 | 41.4
4 | YXEGTFTSDYSIXLEKQAQXAFVEWLIKGGPSEGQSIRHYYNWLTRQRY (Aib at 2, 13, 20; K28 side chain: C20DA-gGlu-gGlu-gGlu-gGlu-gGlu-gGlu-eLys; C-terminal NH2) [Compound 134] | 0.1 | 3.94 | 0.09 | 0.83 | 10.1 | 40
5 | YXEGTFTSDYSIXLEKQAQXAFVEYLIKGGPSSGASLRHYYNWLTRQRY (Aib at 2, 13, 20; K28 side chain: C20DA-gGlu-gGlu-gGlu-gGlu-gGlu-gGlu-eLys; C-terminal NH2) [Compound 135] | 0.24 | 2.3 | 0.11 | 1.07 | 8.4 | 21.5
6 | YXEGTFTSDYSIXLEKAAQXAFVEWLIKGGPSSGASLRHYYNWLTRQRY (Aib at 2, 13, 20; K28 side chain: C20DA-gGlu-gGlu-gGlu-gGlu-gGlu-gGlu-eLys; C-terminal NH2) [Compound 136] | 0.32 | 4.19 | 0.31 | 2.03 | 15.1 | 64.7
7 | YXEGTFTSDYSIXLEKQAQXAFVEWLIKGGPSSGASLRHYYNWXTRQRY (Aib at 2, 13, 20; Tle at 44; K28 side chain: C20DA-gGlu-gGlu-gGlu-gGlu-gGlu-gGlu-eLys; C-terminal NH2) [Compound 137] | 0.12 | 2.22 | 0.28 | 1.5 | 60.2 | 93
8 | Y[Aib]EGTFTSDYSI[Aib]LEKQAE[Aib]AFVQWLIK([εLys-γGlu-γGlu-γGlu-γGlu-γGlu-C18 diacid])GGPSEGASLRHYYNWLTRQRY-NH2 [Compound 138] | 0.19 | 5.09 | 0.13 | 0.81 | 18.3 | 28.4
9 | Y[Aib]EGTFTSDYSI[Aib]LEKQAQ[Aib]AFVQWLIK([Ahx-γGlu-γGlu-γGlu-γGlu-γGlu-γGlu-C18 diacid])GGPSSGASLRHYYNWLTRQRY-NH2 [Compound 139] | 0.07 | 1.62 | 0.22 | 1.04 | 18.3 | 43.2
10 | YXEGTFTSDYSIXLEKQAQXAFVEWLIKGGPSSPASLRHYYNWLTRQRY (Aib at 2, 13, 20; K28 side chain: C18DA-gGlu-gGlu-gGlu-gGlu-gGlu-OEG-OEG; C-terminal NH2) [Compound 140] | 0.12 | 3.11 | 0.22 | 1.2 | 12.4 | 45.9
11 | YXEGTFTSDYSIXLEKQAQXEFVQWLIKGGPSEGASLRHYYNWLTRQRY (Aib at 2, 13, 20; K28 side chain: C18DA-gGlu-gGlu-gGlu-gGlu-gGlu; C-terminal NH2) [Compound 141] | 0.25 | 7.93 | 0.4 | 1.32 | 11.8 | 35.2
12 | YXEGTFTSDYSIXLEKQAQXAFVQWLIKGGPSEPASLRHYYNWLTRQRY (Aib at 2, 13, 20; K28 side chain: C18DA-gGlu-gGlu-gGlu-gGlu-gGlu-OEG-OEG; C-terminal NH2) [Compound 142] | 0.12 | 3.34 | 0.28 | 1.15 | 12.9 | 28.2
13 | Y[Aib]EGTFTSDYSI[Aib]LEKQAQ[Aib]AFVQWLIK([εLys-γGlu-γGlu-γGlu-γGlu-γGlu-C18 diacid])GGPEEGASLRHYYNWLTRQRY-NH2 [Compound 143] | 0.13 | 4.24 | 0.22 | 0.67 | 13.1 | 42.2
14 | Y[Aib]EGTFTSDYSI[Aib]LEKQAQ[Aib]AFVQWLIK([AEEA-AEEA-γGlu-γGlu-γGlu-C18 diacid])GGPEEGASLRHYYNWLTRQRY-NH2 [Compound 144] | 0.16 | 5.59 | 1.15 | 0.79 | 15.8 | 48.7
15 | Y[Aib]EGTFTSDYSI[Aib]LEKQAQ[Aib]EFVEWLIK([AEEA-AEEA-γGlu-γGlu-γGlu-γGlu-C18 diacid])GGPSSGASLRHYYNWLTRQRY-NH2 [Compound 145] | 0.31 | 7.29 | 0.28 | 1.23 | 11.9 | 31.8
16 | Y[Aib]EGTFTSDYSI[Aib]LEKQAQ[Aib]AFVQWLIK([AEEA-AEEA-γGlu-γGlu-γGlu-γGlu-C18 diacid])GGPEEGASLRHYYNWLTRQRY-NH2 [Compound 146] | 0.14 | 4.27 | 0.77 | 0.73 | 14 | 38.8
17 | Y[Aib]EGTFTSDYSI[Aib]LEKQAQ[Aib]AFVQWLIKGGPSSGASLRHYYNWLTRQRY-NH2 (not fully specified (residue 28)) [Compound 147] | 0.08 | 1.54 | 0.19 | 1.6 | 23.3 | 65.6
18 | Y[Aib]EGTFTSDYSI[Aib]LEKQAQ[Aib]AFVQWLIK([εLys-γGlu-γGlu-γGlu-γGlu-γGlu-C18 diacid])GGPSEPASLRHYYNWLTRQRY-NH2 [Compound 148] | 0.08 | 1.46 | 0.07 | 0.47 | 11 | 21.1
